Experimental findings from patent US20030186281A1, “Modified tetracycline repressor protein compositions and methods of use” (priority 2001, published 2003) are described below.

The data set relates to tet operator sequence. Kind of data set: β-galactosidase activity of a tetracycline-regulated promoter in transformed E. coli with revTetR, in the presence and absence of anhydrotetracycline (atc). The class given is cell-based, Escherichia coli. The conditions noted are these: for β-Galactosidase Activity, Cultured Without ATC: RevTetR isolate cultured in the absence of anhydrotetracycline (ATC); for β-Galactosidase Activity, Cultured With ATC: RevTetR isolate cultured in the presence of anhydrotetracycline (ATC). The essentials: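 TetR(BD) chimera mutants (TetR(B) residues 1–50, TetR(D) 51–208) expressed in E. coli regulating a tet operator-controlled lacZ. β-Galactosidase measured in Miller units at 28 °C and 37 °C with and without anhydrotetracycline; reported as percent of maximal expression without Tet repressor.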

Numbering of substitutions follows the chain as printed. In names and notes the source's numbering stands.

B1: TetRrev96/99-12: revTetR(BD) G96H V99Q (protein)
chain: MSRLDKSKVINSALELLNEVGIEGLTTRKLAQKLGVEQPTLYWHVKNKRALLDALAVEILARHHDYSLPAAGESWQSFLRNNAMSFRRALLRYRDHAKQHLGTRPDEKQYDTVETQLRFMTENGFSLRDGLYAISAVSHFTLGAVLEQQEHTAALTDRPAAPDENLPPLLREALQIMDSDDGEQAFLHGLESLIRGFEVQLTALLQIV
modifications: Modified tetracycline repressor
notes: revTetR(BD) G96H V99Q
Regarding B1, the “β-Galactosidase Activity, Cultured Without ATC” value worked out at 102.406 and the “β-Galactosidase Activity, Cultured With ATC” value was determined as 18.841.

B2: TetRrevAtc4-22: revTetR(BD) R49H A56P V57L L60M (protein)
chain: B1 chain with R49H, A56P, V57L, L60M, H96G, Q99V
modifications: Modified tetracycline repressor
notes: revTetR(BD) R49H A56P V57L L60M
With B2, the “β-Galactosidase Activity, Cultured Without ATC” value came out at 80.2859 and the “β-Galactosidase Activity, Cultured With ATC” value was found to be 3.7584.

B3: TetRrevAtc4-28: revTetR(BD) V57V E58K L60V R62G (protein)
chain: B1 chain with E58K, L60V, R62G, H96G, Q99V
modifications: Modified tetracycline repressor
notes: revTetR(BD) V57V E58K L60V R62G
On to B3, for which the “β-Galactosidase Activity, Cultured Without ATC” value amounted to 85.141 and the “β-Galactosidase Activity, Cultured With ATC” value was 4.217.

B4: TetRrevAtc4-24: revTetR(BD) A56P V57A E58Q H63Q (protein)
chain: B1 chain with A56P, V57A, E58Q, H63Q, H96G, Q99V
modifications: Modified tetracycline repressor
notes: revTetR(BD) A56P V57A E58Q H63Q
In the case of B4, the “β-Galactosidase Activity, Cultured Without ATC” value was 61.649 and the “β-Galactosidase Activity, Cultured With ATC” value stood at 13.63.

B5: TetRrevAtc4-5: revTetR(BD) I59F A61S H64Q A97T (protein)
chain: B1 chain with I59F, A61S, H64Q, H96G, A97T, Q99V
modifications: Modified tetracycline repressor
notes: revTetR(BD) I59F A61S H64Q A97T
Regarding B5, the “β-Galactosidase Activity, Cultured Without ATC” value is reported as 98.272 and the “β-Galactosidase Activity, Cultured With ATC” value was 12.552.

B6: TetRrevAtc4-4: revTetR(BD) I59S R62S (protein)
chain: B1 chain with I59S, R62S, H96G, Q99V
modifications: Modified tetracycline repressor
notes: revTetR(BD) I59S R62S
For the molecule B6, the “β-Galactosidase Activity, Cultured Without ATC” value was 70.5665 and the “β-Galactosidase Activity, Cultured With ATC” value is listed as 2.5363.

B7: TetRrev96/99-15: revTetR(BD) G96P V99P (protein)
chain: B1 chain with H96P, Q99P
modifications: Modified tetracycline repressor
notes: revTetR(BD) G96P V99P
For B7, the “β-Galactosidase Activity, Cultured Without ATC” value is recorded as 110.413 and the “β-Galactosidase Activity, Cultured With ATC” value is 14.218.

B8: TetRrev96/99-16: revTetR(BD) G96P V99Y (protein)
chain: B1 chain with H96P, Q99Y
modifications: Modified tetracycline repressor
notes: revTetR(BD) G96P V99Y
Regarding B8, the “β-Galactosidase Activity, Cultured Without ATC” value came to 93.7512 and the “β-Galactosidase Activity, Cultured With ATC” value is on record as 9.8301.

B9: TetRrev96/99-13: revTetR(BD) G96T V99D (protein)
chain: B1 chain with H96T, Q99D
modifications: Modified tetracycline repressor
notes: revTetR(BD) G96T V99D
B9: the “β-Galactosidase Activity, Cultured Without ATC” value is on record as 103.963 and the “β-Galactosidase Activity, Cultured With ATC” value was determined as 16.95.

B10: TetRrevAtc4-47: revTetR(BD) L51L E58A I59N H63Y (protein)
chain: B1 chain with E58A, I59N, A61E, H63Y, H64N, H96G, Q99V
modifications: Modified tetracycline repressor
notes: revTetR(BD) L51L E58A I59N H63Y
Regarding B10, the “β-Galactosidase Activity, Cultured Without ATC” value is 83.987 and the “β-Galactosidase Activity, Cultured With ATC” value was 13.969.

B11: TetRrevAtc4-48: revTetR(BD) D53N A54S L55L A56P V57V A61A R62L (protein)
chain: B1 chain with D53N, A54S, A56P, V57P, R62L, H96G, Q99V
modifications: Modified tetracycline repressor
notes: revTetR(BD) D53N A54S L55L A56P V57V A61A R62L
In the case of B11, the “β-Galactosidase Activity, Cultured Without ATC” value is given as 110.179 and the “β-Galactosidase Activity, Cultured With ATC” value is 16.146.

B12: TetRrevAtc4-31: revTetR(BD) A50S D53Y A56G V57I H63Q (protein)
chain: B1 chain with A50S, D53Y, A54G, A56G, V57I, H63Q, H96G, Q99V
modifications: Modified tetracycline repressor
notes: revTetR(BD) A50S D53Y A56G V57I H63Q
B12: the “β-Galactosidase Activity, Cultured Without ATC” value is reported as 65.039 and the “β-Galactosidase Activity, Cultured With ATC” value was 2.181.

B13: TetRrevAtc4-43: revTetR(BD) L52V A56V V57L I59T A61S (protein)
chain: B1 chain with L52V, A56V, V57L, I59T, A61S, H96G, Q99V
modifications: Modified tetracycline repressor
notes: revTetR(BD) L52V A56V V57L I59T A61S
On to B13, for which the “β-Galactosidase Activity, Cultured Without ATC” value worked out at 99.61 and the “β-Galactosidase Activity, Cultured With ATC” value was determined as 13.878.

B14: TetRrev96/99-14: revTetR(BD) G96N V99N (protein)
chain: B1 chain with H96N, Q99N
modifications: Modified tetracycline repressor
notes: revTetR(BD) G96N V99N
Turning to B14, the “β-Galactosidase Activity, Cultured Without ATC” value is 110.999 and the “β-Galactosidase Activity, Cultured With ATC” value is recorded as 14.693.

B15: TetRrevAtc4-25: revTetR(BD) K48K V57L E58V I59T L60F R62S (protein)
chain: B1 chain with V57L, E58V, I59T, L60F, R62S, H96G, Q99V
modifications: Modified tetracycline repressor
notes: revTetR(BD) K48K V57L E58V I59T L60F R62S
With B15, the “β-Galactosidase Activity, Cultured Without ATC” value is 98.629 and the “β-Galactosidase Activity, Cultured With ATC” value is on record as 12.116.

B16: TetRrev96/99-18: revTetR(BD) G96T V99P (protein)
chain: B1 chain with H96T, Q99P
modifications: Modified tetracycline repressor
notes: revTetR(BD) G96T V99P
Take B16: the “β-Galactosidase Activity, Cultured Without ATC” value stood at 85.7142 and the “β-Galactosidase Activity, Cultured With ATC” value is 7.5138.

B17: TetRrevAtc4-21: revTetR(BD) K6K D53F L55L V57L I59S A61S (protein)
chain: B1 chain with D53F, V57L, I59S, A61S, H96G, Q99V
modifications: Modified tetracycline repressor
notes: revTetR(BD) K6K D53F L55L V57L I59S A61S
B17: the “β-Galactosidase Activity, Cultured Without ATC” value amounted to 104.757 and the “β-Galactosidase Activity, Cultured With ATC” value is 16.831.

B18: TetRrev96/99-17: revTetR(BD) G96T V99K (protein)
chain: B1 chain with H96T, Q99K
modifications: Modified tetracycline repressor
notes: revTetR(BD) G96T V99K
In the case of B18, the “β-Galactosidase Activity, Cultured Without ATC” value is 92.9198 and the “β-Galactosidase Activity, Cultured With ATC” value is recorded as 8.4558.

B19: TetRrevAtc4-20: revTetR(BD) V57V E58K L60V A61T R62G (protein)
chain: B1 chain with E58K, L60V, A61T, R62G, H96G, Q99V
modifications: Modified tetracycline repressor
notes: revTetR(BD) V57V E58K L60V A61T R62G
In the case of B19, the “β-Galactosidase Activity, Cultured Without ATC” value was found to be 78.478 and the “β-Galactosidase Activity, Cultured With ATC” value came out at 8.048.

B20: TetRrev96P: revTetR(BD) G96P (protein)
chain: B1 chain with H96P, Q99V
modifications: Modified tetracycline repressor
notes: revTetR(BD) G96P
Consider B20, for which the “β-Galactosidase Activity, Cultured Without ATC” value came out at 24.1109 and the “β-Galactosidase Activity, Cultured With ATC” value is listed as 4.1882.

B21: TetRrevAtc4-2: revTetR(BD) R49G L55L V57V E58N R62L H63Q (protein)
chain: B1 chain with R49G, E58N, R62L, H63Q, H96G, Q99V
modifications: Modified tetracycline repressor
notes: revTetR(BD) R49G L55L V57V E58N R62L H63Q
For B21, the “β-Galactosidase Activity, Cultured Without ATC” value is 3.143 and the “β-Galactosidase Activity, Cultured With ATC” value was 0.9516.

B22: TetRrevAtc4-23: revTetR(BD) A50D L51V L52Q A54A L55L A61S (protein)
chain: B1 chain with A50D, L51V, L52Q, A61S, H96G, Q99V
modifications: Modified tetracycline repressor
notes: revTetR(BD) A50D L51V L52Q A54A L55L A61S
With B22, the “β-Galactosidase Activity, Cultured Without ATC” value was found to be 105.95 and the “β-Galactosidase Activity, Cultured With ATC” value is listed as 21.606.

B23: TetRrev96/99-19: revTetR(BD) G96R V99S (protein)
chain: B1 chain with H96R, Q99S
modifications: Modified tetracycline repressor
notes: revTetR(BD) G96R V99S
For B23, the “β-Galactosidase Activity, Cultured Without ATC” value was determined as 95.188 and the “β-Galactosidase Activity, Cultured With ATC” value was 7.4009.

B24: TetRrevAtc4-40: revTetR(BD) A56P L60L A61G R62R (protein)
chain: B1 chain with A56P, A61G, H96G, Q99V
modifications: Modified tetracycline repressor
notes: revTetR(BD) A56P L60L A61G R62R
B24: the “β-Galactosidase Activity, Cultured Without ATC” value is 56.743 and the “β-Galactosidase Activity, Cultured With ATC” value amounted to 14.428.

B25: TetRrevAtc4-52: revTetR(BD) D53F A54T L55M I59S H63Q (protein)
chain: B1 chain with D53F, A54T, L55M, I59S, H63Q, H96G, Q99V
modifications: Modified tetracycline repressor
notes: revTetR(BD) D53F A54T L55M I59S H63Q
For B25, the “β-Galactosidase Activity, Cultured Without ATC” value is on record as 105.367 and the “β-Galactosidase Activity, Cultured With ATC” value was found to be 5.575.

B26: TetRrev96/99-20: revTetR(BD) G96S V99K (protein)
chain: B1 chain with H96S, Q99K
modifications: Modified tetracycline repressor
notes: revTetR(BD) G96S V99K
As to B26, the “β-Galactosidase Activity, Cultured Without ATC” value came out at 81.8583 and the “β-Galactosidase Activity, Cultured With ATC” value is on record as 3.0074.
